In paper PMC7058304 (PLoS ONE, 2020) one finds Kd, koff and kon data, which are given here for 4 molecules.

Holding throughout (details): both partners purified
Assay [1] concerns the target T1, Recombinant purified human PD-1 protein, residues Leu25-Thr168, with a C-terminal 6-His tag (Homo sapiens, UniProt Q15116).
T1 construct: human PD-1 (programmed cell death protein 1), residues Leu25-Thr168; monomer; used as analyte in SPR and as titrant in KinExA; also called PD-1-His; PD-1-His monomer; source: bought: R&D Systems (catalog# 8986-PD, lot# DDJM0417041); not shown: His6, C-terminal, kept
Kind of assay: SPR; Carterra LSA, CMD-P (flat) chip; mAb captured by amine-coupled goat anti-human IgG Fc, PD-1-His as analyte 0.5-1000 nM, 5 min association, 20 min dissociation; run buffer with 0.5 mg/ml BSA; global 1:1 Langmuir fit; mean (stdev) of 8-12 spots per mAb; KD deduced from kd/ka; apparent. For orientation: In SPR one partner is held on a chip, and binding of the other changes the refractive index at the surface.
T1 sequence (Q15116 25-168): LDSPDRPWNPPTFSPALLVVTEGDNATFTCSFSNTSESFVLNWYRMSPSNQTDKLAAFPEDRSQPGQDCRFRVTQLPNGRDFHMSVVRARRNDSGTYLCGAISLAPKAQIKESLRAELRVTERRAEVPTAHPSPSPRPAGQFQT

The target of assay [2] is T1, Recombinant purified human PD-1 …. Briefly: KinExA; 'Kinetics, Direct' method, solution phase: mAb mixed with PD-1, free mAb probed repeatedly pre-equilibrium on PD-1-coupled PMMA beads, Alexa647 goat anti-human IgG detection; ka fitted (best fit, 95% CI), kd calculated from ka and KD.
Assay [3] concerns the target T2, Recombinant purified human PD-1 protein, residues Leu25-Thr168, with a C-terminal 6-His tag (Homo sapiens, UniProt Q15116).
T2 construct: programmed cell death protein 1 (PD-1), human, residues Leu25-Thr168; also called programmed cell death protein 1; PD-1-His monomer; source: bought: R&D Systems (catalog# 8986-PD, lot# DDJM0417041)
Briefly: SPR; Biacore 8K, CMD-P chip (flat); mAb captured on amine-coupled goat anti-human IgG Fc, PD-1-His monomer as analyte (100 nM top, 3-fold dilutions), 1200 s dissociation; 25 C, HBS-EP+ pH 7.4; 1:1 Langmuir fit, apparent constants.
T2 sequence (Q15116 25-168): as above

In assay [4] the target is T2, Recombinant purified human PD-1 …. Briefly: SPR; Biacore 8K, C1 chip (flat); mAb captured on amine-coupled goat anti-human IgG Fc, PD-1-His monomer as analyte (100 nM top, 3-fold dilutions), 1200 s dissociation; 25 C, HBS-EP+ pH 7.4; 1:1 Langmuir fit, apparent constants; 8 mAbs measured in two independent experiments.
Assay [5] has the same target. The description is as above. This is another data set of the same source.
Target sequence in this assay (Q15116 25-168): as above
Assay [6] has the same target. Briefly: SPR; Biacore 8K, CMD-200M chip (3D-hydrogel); mAb captured on amine-coupled goat anti-human IgG Fc, PD-1-His monomer as analyte (100 nM top, 3-fold dilutions), 1200 s dissociation; 25 C, HBS-EP+ pH 7.4; 1:1 Langmuir fit, apparent constants.
Target sequence in this assay (Q15116 25-168): as above
The target is the same in assay [7]. Briefly: SPR; Biacore 8K, CM5 chip (3D-hydrogel); mAb captured on amine-coupled goat anti-human IgG Fc, PD-1-His monomer as analyte (100 nM top, 3-fold dilutions), 1200 s dissociation; 25 C, HBS-EP+ pH 7.4; 1:1 Langmuir fit, apparent constants.
Target sequence in this assay (Q15116 25-168): as above

Usually koff stands for the rate constant with which the complex falls apart. As usually defined, the kon is a measure of how fast the partners come together.

B1: mAb03 (analog of tislelizumab) (antibody, V domains shown)
VH: QVQLQESGPGLVKPSETLSLTCTVSGFSLTSYGVHWIRQPPGKGLEWIGVIYADGSTNYNPSLKSRVTISKDTSKNQVSLKLSSVTAADTAVYYCARAYGNYWYIDVWGQGTTVTVSS
VL: DIVMTQSPDSLAVSLGERATINCKSSESVSNDVAWYQQKPGQPPKLLINYAFHRFTGVPDRFSGSGYGTDFTLTISSLQAEDVAVYYCHQAYSSPYTFGQGTKLEIK
notes: VH; IgG4 heavy-chain constant region with a stabilizing 226CPPC hinge modification; IgG4; isotype-matched analog made from published variable regions, not the clinical molecule; source: HEK293 suspension cells, cotransfected, purified (Protein A)
On to B1, for which, in assay [1], the Kd is < 0.1 nM, the koff is < 4.27e-05 s⁻¹ and the kon was 432000 M⁻¹ s⁻¹. For the same molecule, in assay [2], the koff was 6.82e-05 s⁻¹ and the kon was 1.8e+06 M⁻¹ s⁻¹.

B2: mAb23 (analog of cemiplimab) (antibody, V domains shown)
VH: EVQLLESGGVLVQPGGSLRLSCAASGFTFSNFGMTWVRQAPGKGLEWVSGISGGGRDTYFADSVKGRFTISRDNSKNTLYLQMNSLKGEDTAVYYCVKWGNIYFDYWGQGTLVTVSS
VL: DIQMTQSPSSLSASVGDSITITCRASLSINTFLNWYQQKPGKAPNLLIYAASSLHGGVPSRFSGSGSGTDFTLTIRTLQPEDFATYYCQQSSNTPFTFGPGTVVDFR
notes: as for B1
For the molecule B2, in assay [1], the Kd is 1.52 nM, the koff was 0.000297 s⁻¹ and the kon amounted to 195000 M⁻¹ s⁻¹. Also, in assay [2], the koff was 0.00011 s⁻¹ and the kon was 502000 M⁻¹ s⁻¹.

B3: mAb04 (antibody, V domains shown)
VH: QVQLVQSGAEVKKPGASVKVSCKASGYSFTSYWMNWVRQAPGQGLEWIGVIHPSDSETWLDQKFKDRVTITVDKSTSTAYMELSSLRSEDTAVYYCAREHYGTSPFAYWGQGTLVTVSS
VL: EIVLTQSPATLSLSPGERATLSCRASESVDNYGMSFMNWFQQKPGQPPKLLIHAASNQGSGVPSRFSGSGSGTDFTLTISSLEPEDFAVYFCQQSKEVPYTFGGGTKVEIK
notes: IgG4; also called analog of retifanlimab; retifan; source: HEK293 suspension cells, cotransfected, purified (Protein A)
On to B3, for which the Kd in assay [3] was 0.387 nM; in assay [4], 0.307 nM; in assay [5], 0.297 nM; in assay [6], 0.582 nM; in assay [7], 0.717 nM. Moreover, the koff in assay [3] came to 0.000235 s⁻¹; in assay [4], 0.000269 s⁻¹; in assay [5], 0.000277 s⁻¹; in assay [6], 0.000253 s⁻¹; in assay [7], 0.000235 s⁻¹. The kon in assay [3] was 608000 M⁻¹ s⁻¹; in assay [4], 877000 M⁻¹ s⁻¹; in assay [5] it was 933000 M⁻¹ s⁻¹; in assay [6], 435000 M⁻¹ s⁻¹; in assay [7] it was 328000 M⁻¹ s⁻¹.

B4: mAb16 (analog of dostarlimab) (antibody, V domains shown)
VH: EVQLLESGGGLVQPGGSLRLSCAASGFTFSSYDMSWVRQAPGKGLEWVSTISGGGSYTYYQDSVKGRFTISRDNSKNTLYLQMNSLRAEDTAVYYCASPYYAMDYWGQGTTVTVSS
VL: DIQLTQSPSFLSAYVGDRVTITCKASQDVGTAVAWYQQKPGKAPKLLIYWASTLHTGVPSRFSGSGSGTEFTLTISSLQPEDFATYYCQHYSSYPWTFGQGTKLEIK
notes: as for B1
Take B4: in assay [1], the Kd came to 1.67 nM, the koff stood at 0.000421 s⁻¹ and the kon worked out at 252000 M⁻¹ s⁻¹. For the same molecule, in assay [2], the off-rate constant (koff) is 0.00013 s⁻¹ and the kon is 639000 M⁻¹ s⁻¹.
